“And” between values parts separate entries of the source, which are not always exact repeats. Identical values can stand only once.
Tests used:
HT29 cells = test: Cell viability assay, HT29; assay type: cell-based, human; settings: read-out: IC50 cell viability, free DM1
Experimental: (§1) Cell viability was determined by the MTS assay. […] Morphological changes were observed under the Olympus BK-41 inverted microscope and photographed. […] FIG. 3D: Cell death percentages were determined by the trypan blue exclusion method.
(§2) Cell viability and death assays: Cell viability 72 h after Zt/g4-DM1 treatment was determined by the MTT assay (22). Viable or dead cells were determined by the trypan blue exclusion assay. A total of 900 cells were counted from three individual wells to reach the percentages of dead cells.
(§3) The effect of Zt/g4-DM1 on cell viability was determined. […] The cells were treated with Zt/g4-DM1.

SW620 cells = test: Cell viability assay, SW620; assay type: cell-based, human; settings: read-out: IC50 cell viability, free DM1
Experimental: as §1, §2, §3

HCT116 cells = test: Cell viability assay, HCT116; assay type: cell-based, human; settings: read-out: IC50 cell viability, free DM1
Experimental: as §1, §2, §3

[1] = biological target: T1, oncogenic RON variant RON160 (human, UniProt Q04912 25-1400, limits assumed); test: receptor binding studies; format not stated
T1 construct: also called RONΔ160

[2] = biological target: T2, human RON receptor tyrosine kinase (recepteur d'origine nantais) (human, UniProt Q04912 25-1400); test: cell-based or functional assay
[3] = biological target: T2, human RON receptor tyrosine kinase …; test: cell-based or functional assay; remark: listed apart in the source
mouse RON homologue = biological target: T3, mouse RON homologue (Mus musculus, UniProt Q62190); settings: cited from earlier work
T3 sequence (Q62190 24-1378): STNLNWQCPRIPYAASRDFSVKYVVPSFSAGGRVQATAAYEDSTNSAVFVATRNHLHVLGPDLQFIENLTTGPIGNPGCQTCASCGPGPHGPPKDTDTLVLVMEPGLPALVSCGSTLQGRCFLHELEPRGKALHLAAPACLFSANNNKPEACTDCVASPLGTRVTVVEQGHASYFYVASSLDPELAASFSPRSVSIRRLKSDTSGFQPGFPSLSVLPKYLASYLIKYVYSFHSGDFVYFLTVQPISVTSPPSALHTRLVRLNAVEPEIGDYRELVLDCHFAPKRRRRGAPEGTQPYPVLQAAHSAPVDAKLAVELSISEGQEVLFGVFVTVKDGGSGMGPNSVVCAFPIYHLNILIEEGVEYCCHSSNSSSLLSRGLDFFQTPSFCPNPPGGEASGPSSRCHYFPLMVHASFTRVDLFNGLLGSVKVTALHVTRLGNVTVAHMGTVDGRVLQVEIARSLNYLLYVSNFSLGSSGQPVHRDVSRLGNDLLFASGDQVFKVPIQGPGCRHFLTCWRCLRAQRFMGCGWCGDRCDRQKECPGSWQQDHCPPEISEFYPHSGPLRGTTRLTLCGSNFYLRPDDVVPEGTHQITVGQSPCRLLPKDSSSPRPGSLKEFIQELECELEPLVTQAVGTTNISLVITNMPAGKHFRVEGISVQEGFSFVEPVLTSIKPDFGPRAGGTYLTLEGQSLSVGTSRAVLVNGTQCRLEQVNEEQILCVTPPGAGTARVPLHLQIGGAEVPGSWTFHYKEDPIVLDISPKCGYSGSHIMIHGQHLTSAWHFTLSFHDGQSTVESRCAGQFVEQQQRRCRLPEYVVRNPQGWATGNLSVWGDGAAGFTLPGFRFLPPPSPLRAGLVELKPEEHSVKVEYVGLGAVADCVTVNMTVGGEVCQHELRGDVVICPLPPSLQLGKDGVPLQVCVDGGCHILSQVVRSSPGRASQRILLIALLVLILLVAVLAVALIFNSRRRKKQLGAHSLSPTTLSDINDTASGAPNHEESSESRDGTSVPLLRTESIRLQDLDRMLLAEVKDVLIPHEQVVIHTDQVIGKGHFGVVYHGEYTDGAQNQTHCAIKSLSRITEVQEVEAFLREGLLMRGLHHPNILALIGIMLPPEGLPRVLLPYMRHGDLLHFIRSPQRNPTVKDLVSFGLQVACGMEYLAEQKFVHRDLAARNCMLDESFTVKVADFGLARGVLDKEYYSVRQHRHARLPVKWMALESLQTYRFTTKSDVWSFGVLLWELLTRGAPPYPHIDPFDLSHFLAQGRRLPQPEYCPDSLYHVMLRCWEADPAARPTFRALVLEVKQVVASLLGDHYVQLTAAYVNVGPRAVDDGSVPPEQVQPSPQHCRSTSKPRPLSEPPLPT

cell surface RON = cell surface RON (Homo sapiens, UniProt Q04912); test: Antibody-induced RON endocytosis in cancerous cells; assay type: cell-based; parameters: cause rapid and significant amount of cell surface RON internalization in cancerous cells; endogenous in cells
Source text: During characterization of anti-RON mAbs, the present inventors discovered that agonistic anti-RON mAb such as Zt/g4 and Zt/c1 binds to RON and cause rapid and significant amount of cell surface RON internalization in cancerous cells (a process known as antibody-induced receptor endocytosis). […] Fab fragments that fail to cause RON activation cannot induce RON endocytosis. In light of these findings, the present inventors conclude that anti-RON mAb-induced RON endocytosis can be used as a pharmaceutical means for targeted drug delivery.

RON = RON (Homo sapiens, UniProt Q04912); test: Classification of anti-RON mAbs by activity upon binding to RON; assay type: cell-based
Source text: Using an advanced living cell immunization method, the present inventors were able to generate mAbs specific only to the RON extracellular domains. Using flow cytometer in conjunction with biological assays, the present inventors characterize our anti-RON mAbs for their specificity and sensitivity. […] This is based on direct binding, ELISA, IHC, Western blotting and other biochemical and biological assays. Moreover, based on their activities upon binding to RON, the present inventors were able to classify the anti-RON mAb into three categories. […] This type of anti-RON mAbs is considered as agnostic antibodies. The representatives are Zt/g4, Zt/c1, Zt/c9, Zt/f1, and Zt/H12. […] The typical examples are Zt/g9 and Zt/c8. […] One example is Zt/f2. The present inventors considered this type of mAb having therapeutic potentials.

[4] = system: human pancreatic cancer cells; test: PDAC cell viability in combination with chemotherapeutics; assay type: cell-based
Experimental: In vitro cell viability and death assays: Cell viability after treatment of Zt/g4-DM1, chemotherapeutics, and their combinations was determined by the MTT assay. Cell death was determined by the trypan blue exclusion assay.
FIGS. 10A to 10D are graphs that show the effect of Zt/g4-DM1 on pancreatic cancer cell cycle, viability, and apoptotic death. […] FIG. 12 are graphs that show synergism between Zt/g4-DM1 and chemotherapeutics by isobolograms.

[5] = biological target: T2, human RON receptor tyrosine kinase …; test: direct binding, ELISA, IHC, Western blotting, flow cytometry

cell surface RON, sequence (Q04912 25-1400): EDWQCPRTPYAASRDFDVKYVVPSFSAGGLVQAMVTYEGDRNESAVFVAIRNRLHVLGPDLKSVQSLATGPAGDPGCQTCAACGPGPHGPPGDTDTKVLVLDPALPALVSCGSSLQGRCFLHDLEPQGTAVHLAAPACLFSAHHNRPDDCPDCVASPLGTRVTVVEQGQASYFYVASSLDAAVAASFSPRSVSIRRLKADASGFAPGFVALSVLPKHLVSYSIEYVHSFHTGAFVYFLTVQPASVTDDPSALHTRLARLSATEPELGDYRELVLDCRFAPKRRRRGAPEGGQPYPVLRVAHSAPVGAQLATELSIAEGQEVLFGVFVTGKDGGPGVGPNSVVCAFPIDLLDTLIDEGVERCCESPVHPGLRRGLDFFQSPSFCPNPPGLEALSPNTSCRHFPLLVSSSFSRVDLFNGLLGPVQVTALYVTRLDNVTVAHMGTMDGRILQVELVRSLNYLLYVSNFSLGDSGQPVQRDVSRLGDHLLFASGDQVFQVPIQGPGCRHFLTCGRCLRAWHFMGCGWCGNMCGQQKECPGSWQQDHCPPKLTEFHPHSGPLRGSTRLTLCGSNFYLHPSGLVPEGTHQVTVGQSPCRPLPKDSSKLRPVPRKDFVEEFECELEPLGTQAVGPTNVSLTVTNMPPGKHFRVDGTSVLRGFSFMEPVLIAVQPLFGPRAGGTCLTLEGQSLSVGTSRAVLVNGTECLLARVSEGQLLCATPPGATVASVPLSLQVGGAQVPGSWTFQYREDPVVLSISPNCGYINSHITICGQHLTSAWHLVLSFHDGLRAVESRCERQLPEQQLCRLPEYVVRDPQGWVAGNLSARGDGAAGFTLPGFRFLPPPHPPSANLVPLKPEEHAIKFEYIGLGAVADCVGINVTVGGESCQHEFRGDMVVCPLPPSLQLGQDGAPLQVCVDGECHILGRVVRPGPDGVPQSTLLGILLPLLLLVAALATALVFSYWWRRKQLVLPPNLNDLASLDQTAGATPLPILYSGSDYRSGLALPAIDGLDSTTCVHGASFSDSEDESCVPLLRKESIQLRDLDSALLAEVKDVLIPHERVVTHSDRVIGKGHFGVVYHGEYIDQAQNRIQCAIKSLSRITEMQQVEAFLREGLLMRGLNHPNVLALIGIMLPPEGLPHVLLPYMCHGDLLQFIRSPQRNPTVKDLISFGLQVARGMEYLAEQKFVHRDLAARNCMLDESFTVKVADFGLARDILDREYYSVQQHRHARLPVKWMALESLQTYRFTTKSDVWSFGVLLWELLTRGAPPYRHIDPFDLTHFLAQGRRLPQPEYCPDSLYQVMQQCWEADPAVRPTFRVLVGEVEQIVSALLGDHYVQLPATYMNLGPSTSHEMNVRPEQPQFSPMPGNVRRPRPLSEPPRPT
RON, sequence (Q04912 25-1400): as above

## COc1cc2cc(c1Cl)N(C)C(=O)C[C@H](OC(=O)[C@H](C)N(C)C(=O)CCS)[C@]1(C)O[C@H]1[C@H](C)[C@@H]1C[C@@](O)(NC(=O)O1)[C@H](OC)/C=C/C=C(\C)C2 [DM1, Maytansinoid (DM1)]
HT29 cells
  IC50: 4.4 nM
SW620 cells
  IC50: 3.2 nM
HCT116 cells
  IC50: 4.1 nM

B1: mouse monoclonal antibody Zt/f2 specific to human RON (antibody, V domains shown)
VH: QVQLQQSGAELAKPGASVKMSCKASGYTFTSYWMHWVKQRPGQGLEWIGYINPSTGYIEYNQNFKDKATLTADKSSSTAYMQLSSLTSEDSAVYYCARSPSHYYGSRYGYFDVWGAGTTVTVSS
VL: QIVLSQSPAILSASPGEKVTMTCRASSSVSYMHWYQQKPGSSPKPWIYATSNLASGVPARFSGSGSGTSYSLTISRVEAEDAATYYCQQWSSNPRTFGGGTKLEIK
notes: Mouse IgG2a; also called anti-RON mAb Zt/f2
[1]
  EC50: 2.3 nM

B2: anti-RON antibody Zt/g4-maytansinoid (DM1) conjugate Zt/g4-DM1 (antibody, V domains shown)
VH: EVQLQQSGAELVKPGASVKLSCTTSGFNIIDTYIHWVNQKPDQGLEWIGRIDPADGNRKSDPKFQVKATITVDTSSNTAYLQLSSLTSGDTAVYYCARGYGNLNAMDSWGQGTSVTVSS
VL: DIQMNQSPSSLSASLGDTITITCHASQNINVWLNWYQQKPGNIPKLLIYKASNLHTGVPSRFSGSGSGTGFTLTISSLQPEDIATYYCQQGQSYPLTFGGGTKLEIK
modifications: DM1 conjugated by non-reducible thioether linkage (SMCC) through lysine residues in the antibody molecule; sites not stated; DM1 conjugated by non-reducible thioether linkage (SMCC) through lysine residues in the antibody molecule; average DAR 3.724; sites not stated
[2]
  IC50 of cell death at 72 h, three CRC cell lines: 5 to 7 µg/mL
  IC50 of cell viability at 72 h, HCT116 cells: 2.16 µg/mL
  IC50 of cell viability at 72 h, HT29 cells: 1.64 µg/mL
  IC50 of cell viability at 72 h, SW620 cells: 4.03 µg/mL
  IC50 of cell viability, DLD1 cells: 20.4 µg/mL
  average IC50 value in causing cell death, three PDAC cell lines (L3.6pl, BxPC-3, FG): 3.13 µg/mL
[3]
  IC50 value, cytotoxic effect on HT-29 cells: 1.25 µg/mL and 8.32 nM

B3: Zt/g4: mouse monoclonal antibody (IgG1α/κ) highly specific to human RON, recognizes the RON sema domain (antibody, V domains shown)
VH: EVQLQQSGAELVKPGASVKLSCTTSGFNIIDTYIHWVNQKPDQGLEWIGRIDPADGNRKSDPKFQVKATITVDTSSNTAYLQLSSLTSGDTAVYYCARGYGNLNAMDSWGQGTSVTVSS
VL: DIQMNQSPSSLSASLGDTITITCHASQNINVWLNWYQQKPGNIPKLLIYKASNLHTGVPSRFSGSGSGTGFTLTISSLQPEDIATYYCQQGQSYPLTFGGGTKLEIK
Mouse RON homologue
  species recognition of RON: only recognizes human RON but not mouse RON homologue
Cell surface RON; after endocytosis
  absence of RON expression in cancerous cells in culture: up to 72 h
Cell surface RON; within 24 h, 10 μg/ml/1×10^6 cancer cells
  cell surface RON internalization: almost all cell surface RON is internalized
RON
  activity upon binding to RON: cause transient RON phosphorylation

B4: Zt/g4-MMAE: Zt/g4 conjugated to monomethyl auristatin E (MMAE) (conjugate)
VH: EVQLQQSGAELVKPGASVKLSCTTSGFNIIDTYIHWVNQKPDQGLEWIGRIDPADGNRKSDPKFQVKATITVDTSSNTAYLQLSSLTSGDTAVYYCARGYGNLNAMDSWGQGTSVTVSS
VL: DIQMNQSPSSLSASLGDTITITCHASQNINVWLNWYQQKPGNIPKLLIYKASNLHTGVPSRFSGSGSGTGFTLTISSLQPEDIATYYCQQGQSYPLTFGGGTKLEIK
[4]; in combination with Gemcitabine
  combination effect on viability of human pancreatic cancer cells: synergistic activity
[4]; in combination with Oxaliplatin
  combination effect on viability of human pancreatic cancer cells: synergistic activity

B5: Zt/g4-MMAE (antibody, V domains shown)
VH: EVQLQQSGAELVKPGASVKLSCTTSGFNIIDTYIHWVNQKPDQGLEWIGRIDPADGNRKSDPKFQVKATITVDTSSNTAYLQLSSLTSGDTAVYYCARGYGNLNAMDSWGQGTSVTVSS
VL: DIQMNQSPSSLSASLGDTITITCHASQNINVWLNWYQQKPGNIPKLLIYKASNLHTGVPSRFSGSGSGTGFTLTISSLQPEDIATYYCQQGQSYPLTFGGGTKLEIK
modifications: monomethyl auristatin E (MMAE) conjugated; average drug to antibody ratio 3.8:1; sites not stated
[2]
  average IC50 value in causing cell death, three PDAC cell lines (L3.6pl, BxPC-3, FG): 5.16 µg/mL

B6: mouse anti-RON monoclonal antibody Zt/g4 (antibody, V domains shown)
VH: EVQLQQSGAELVKPGASVKLSCTTSGFNIIDTYIHWVNQKPDQGLEWIGRIDPADGNRKSDPKFQVKATITVDTSSNTAYLQLSSLTSGDTAVYYCARGYGNLNAMDSWGQGTSVTVSS
VL: DIQMNQSPSSLSASLGDTITITCHASQNINVWLNWYQQKPGNIPKLLIYKASNLHTGVPSRFSGSGSGTGFTLTISSLQPEDIATYYCQQGQSYPLTFGGGTKLEIK
notes: Mouse IgG1a/kappa from hybridoma; The leader is not part of the antibody as tested; also called free Zt/g4; anti-RON mAb Zt/g4
[5]
  binding result: binds

Source: US20160311918A1, “Anti-Ron Monoclonal Antibodies as a Cytotoxic Drug Delivery System for Targeted Cancer Therapy” (TEXAS TECH UNIVERSITY SYSTEM, priority 2013, published 2016)
